From patent US20240317816A1, “PEPTIDES FOR IMMUNOTHERAPY” (Genevive, Inc., priority 2021, published 2024)
Where no end group is shown, it is not given here.

T1: CXCR3 (Homo sapiens, UniProt P49682)
T1 sequence (P49682 1-368): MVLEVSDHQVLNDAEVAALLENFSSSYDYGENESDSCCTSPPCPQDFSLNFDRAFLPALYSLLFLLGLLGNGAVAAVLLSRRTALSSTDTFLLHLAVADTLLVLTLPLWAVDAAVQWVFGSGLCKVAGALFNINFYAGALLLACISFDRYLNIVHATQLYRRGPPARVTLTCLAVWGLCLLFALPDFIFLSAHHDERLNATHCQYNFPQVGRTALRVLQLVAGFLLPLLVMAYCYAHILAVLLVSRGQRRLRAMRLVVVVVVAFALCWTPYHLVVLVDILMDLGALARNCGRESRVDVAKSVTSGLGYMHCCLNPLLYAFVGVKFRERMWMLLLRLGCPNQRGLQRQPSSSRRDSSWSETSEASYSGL

T2: human chemokine (C-X-C motif) receptor 3 (Homo sapiens, UniProt P49682)
T2 construct: TEV protease site; Gal4-VP16 transcription factor ('Ga14-VP16' [sic]); Tango cell line; host or cells: Tango GPCR-bla U2OS
T2 sequence (P49682 1-368): T1 sequence (P49682 1-368)

T3: human chemokine (C-X-C motif) receptor 3 (human, UniProt P49682 1-368)
T3 construct: whole, on cells; The PathHunter gpcrMAX panel uses a different, undescribed construct; also called CXCR3
T3 sequence (looked up): T1 sequence (P49682 1-368)


Key:
[1] = test system: Unstimulated human T cells; experiment: Transwell T cell migration towards CXCR3 ligands; format: cell-based; conditions: CXCL11, 2.5 hours
Description: T cell migration towards CXCR3 ligands in the presence of SG-3-00802 and SG-3-06683 was tested using a Transwell migration assay. Suboptimal concentrations of each ligand (CXCR3 ligands CXCL9, CXCL10, and CXCL11) were added to the bottom of the transwell with increasing doses of SG-3-00802 or SG-3-006683. An optimal concentration of ligand was used as positive control, as indicated in the graphs.
Unstimulated human T cells were resuspended in AIM V serum-free media, then were added to the top chamber of a […] polycarbonate Transwell insert and incubated with the indicated concentrations of the ligands and peptides in the bottom chamber for 2.5 hours at 37° C. T cells that migrated to the bottom chamber were collected, stained with anti-CD3 antibody, and counted using Beckman Coulter Cytoflex flow cytometer. 123count eBeads counting beads were added to each of the wells for obtaining the absolute cell counts.

CXCR3 = target: T1, CXCR3; experiment: Positive allosteric modulator assay method 2 (PAM2), CXCR3-bla U2OS; format: cell-based; set-up: TEV protease site; Gal4-VP16 transcription factor ('Ga14-VP16' [sic]); Tango cell line; host or cells: Tango GPCR-bla U2OS; conditions: varying CXCL11, fixed peptide concentration
From the text: (§1) Tango™ CXCR3-bla U2OS cells contain the human chemokine (C-X-C motif) receptor 3 linked to a TEV protease site and a Ga14-VP16 transcription factor stably integrated into the Tango™ GPCR-bla U2OS cell line. This parental cell line stably expresses a beta-arrestin/TEV protease fusion protein and the beta-lactamase reporter gene under the control of a UAS response element. The Tango™ CXCR3-bla U2OS cells have been functionally validated for a response to I-TAC (CXCL11).
Positive allosteric modulation was confirmed with an additional test method using a dose response setting for CXCL11. In positive allosteric modulator assay method 2 (PAM2), cells were diluted in Assay Media to an appropriate cell density, and were added to the assay plate. CXCR3-bla U2OS were stimulated with varying concentrations of CXCL11 ligand and a pre-determined fixed concentration of either SG-3-00802 or SG-3-06683 and incubated for 30 minutes. Ligand (CXCL9, CXCL10, or CXCL11) was added at increasing concentrations to wells containing the test compound.

[2] = target: T2, human chemokine (C-X-C motif) receptor 3; experiment: Positive allosteric modulator assay method 1 (PAM1), Tango CXCR3-bla U2OS; format: cell-based; conditions: retro-inverso peptide vs SG-3-00802
From the text: To assay positive allosteric modulator activity of SG-3-00802 (SEQ ID NO: 1) and SG-3-006683 in CXCR3 cell lines, the cell line Tango™ CXCR3-bla U2OS was used in a positive allosteric modulator assay with two different methods, as described below.
as §1
In positive allosteric modulator assay method 1 (PAM1), cells were diluted in Assay Media to an appropriate cell density and were added to the assay plate. Peptides were added at increasing concentrations (1 nM-20 mcM) to the cells in the assay plate and incubated for 30 minutes. Ligand (CXCL9, CXCL10, or CXCL11) was added at an EC20 to all wells containing test compound. The assay plate was incubated for 16 hours at 37° C. Substrate Loading Solution was added to the assay plate and incubated for 2 hours at room temperature, in the dark. The assay plate was read on a fluorescence plate reader and the data was analyzed. PAM activity was calculated as follows:
% of PAM=((Test compound−Unstimulated)/(Stimulated−Unstimulated))×100.

[3] = target: T3, human chemokine (C-X-C motif) receptor 3; experiment: hit of DualSystems LRC-TriCEPS capture and SelectScreen reporter assay, confirmed in PathHunter beta-arrestin GPCR panel

Row | Molecule | T cell migration to suboptimal level of ligand [1] | activity of CXCL11 on the CXCR3 receptor (PAM2) (CXCR3) | Activation of CXCR3 [2] | binding result [3]
1 | GQRQKHKPNECIVMVRGKRRIIKCKECMPKVSPRVKM (not fully specified; cysteine pairing not given here) [SG-3-06683] | increased migration | enhanced the activity of the endogenous ligand CXCL11 | maintained | –
2 | MKVRPSVKPMCEKCKIIRRKGRVMVICENPKHKQRQG (also called PEP802) [SG-3-00802] | – | – | – | binds
